Experimental data taken from patent US20190359687A1 (Bayer, published 2019).
Where a chain is given by its changes, count along the chain named. In names and notes the source's numbering stands.

T1: purified human glycophorin A protein (Sigma, cat # G5017) (human, UniProt P02724 20-150)
T1 construct: mature; also called Sigma hGPA; Sigma GPA
T1 sequence (looked up): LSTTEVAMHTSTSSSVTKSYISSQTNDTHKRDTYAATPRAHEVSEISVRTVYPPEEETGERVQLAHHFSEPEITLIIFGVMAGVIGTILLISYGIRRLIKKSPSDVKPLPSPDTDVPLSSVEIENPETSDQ

T2: human glycophorin A in the red blood cell membrane (human, UniProt P02724 20-150)
T2 construct: whole, on cells; used for intact RBC, isolated RBC membranes and transfected cells; the assay field tells which; also called GPA; hGPA
T2 sequence (looked up): T1 sequence (looked up)

T3: Rhesus monkey glycophorin A on Rhesus monkey red blood cells (Rhesus monkey, UniProt A0A1D5Q349 20-150)
T3 construct: whole, on cells; also called Rhesus RBC; monkey GPA
T3 sequence: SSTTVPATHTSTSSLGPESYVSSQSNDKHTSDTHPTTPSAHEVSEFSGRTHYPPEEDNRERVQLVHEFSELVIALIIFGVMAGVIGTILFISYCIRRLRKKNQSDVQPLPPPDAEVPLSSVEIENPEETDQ

T4: native human glycophorin A protein (human, UniProt P02724 20-150)
T4 construct: mature; also called Hu-nat GPA
T4 sequence (looked up): T1 sequence (looked up)

T5: human glycophorin A on human red blood cells or red blood cell membranes (human, UniProt P02724 20-150)
T5 construct: whole, on cells; also called hRBC; human RBC membranes
T5 sequence (looked up): T1 sequence (looked up)

T6: recombinant human glycophorin A ectodomain protein (human, UniProt P02724 20-91)
T6 construct: 72 amino acids of the extracellular region; also called Hu-rec GPA
T6 sequence: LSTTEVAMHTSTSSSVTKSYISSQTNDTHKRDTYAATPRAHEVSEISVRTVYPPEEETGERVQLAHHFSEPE

T7: glycophorin A peptide GP5 (human, biotin at the N-terminus)
T7 construct: Residues 42 to 61 of the human glycophorin A extracellular domain
T7 peptide: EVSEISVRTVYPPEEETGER

B1: Hu6C12-12 (antibody, V domains shown)
VH: EVQLVQSGAEVKKPGASVKVSCKASGYTFTTYTIHWVRQAPGQGLEWMGYINPSSDYTRYNPKFKDRVTMTTDTSTSTAYMELRSLRSDDTAVYYCQTGTRDYWGQGTTVTVSS
VL: DIQLTQSPSFLSASVGDRVTITCSAASSVSYIYWYQQKPGKAPKLLIYSTSTLPSGVPSRFSGSGSGTEYTLTISSLQPEDFATYYCHQRNSFPFTFGQGTKLEIK
notes: IgG format; VH.1c + Vk.1a
B2: Hu6C12-15 (antibody, V domains shown)
VH: B1 VH with M70L
VL: B1 VL
notes: IgG format; VH.1f + Vk.1a
B3: Hu6C12-11 (antibody, V domains shown)
VH: B1 VH with Q97A
VL: B1 VL
notes: IgG format; VH.1b + Vk.1a
B4: Hu6C12-14 (antibody, V domains shown)
VH: B1 VH with M70L, Q97A
VL: B1 VL
notes: IgG format; VH.1e + Vk.1a
B5: Hu6C12-21 (antibody, V domains shown)
VH: B1 VH with M70L, T98R
VL: B1 VL with Y35F
notes: IgG format; VH.1d + Vk.1b
B6: TPP-5840, Hu6C12-24 Fab variant VL: (S24R, A26S, S49A, P54Q, F95Y); VH: (L70M, T72R) (Fab, V domains shown)
VH: B1 VH with M48I, T72R, T74K
VL: DIQLTQSPSFLSASVGDRVTITCRASSSVSYIYWFQQKPGKAPKLLIYATSTLQSGVPSRFSGSGSGTEYTLTISSLQPEDFATYYCHQRNSFPYTFGQGTKLEIKR
notes: Built on the parental Fab TPP-4935
B7: TPP-5836, Hu6C12-24 Fab variant VL: (S24R, A26S, S49A, P54Q, F95Y); VH: (I48M, L70M, T72R) (Fab, V domains shown)
VH: B1 VH with T72R, T74K
VL: B6 VL
notes: as for B6
B8: TPP-5678, Hu6C12-24 Fab variant VH: (I48M, D66G, L70M, T72R) (Fab, V domains shown)
VH: B1 VH with D66G, T72R, T74K
VL: B6 VL with R24S, S26A, A49S, Q54P, Y95F
notes: as for B6
B9: TPP-5842, Hu6C12-24 Fab variant VL: (S24R, A26S, S49A, P54Q, F95Y); VH: (D66G, L70M, T72R) (Fab, V domains shown)
VH: B1 VH with M48I, D66G, T72R, T74K
VL: B6 VL
notes: as for B6
B10: TPP-5838, Hu6C12-24 Fab variant VL: (S24R, A26S, S49A, P54Q, F95Y); VH: (I48M, D66G, L70M) (Fab, V domains shown)
VH: B1 VH with D66G, T74K
VL: B6 VL
notes: as for B6
B11: TPP-8744 FVIII-scFv fusion protein (other)
chain: ATRRYYLGAVELSWDYMQSDLGELPVDARFPPRVPKSFPFNTSVVYKKTLFVEFTDHLFNIAKPRPPWMGLLGPTIQAEVYDTVVITLKNMASHPVSLHAVGVSYWKASEGAEYDDQTSQREKEDDKVFPGGSHTYVWQVLKENGPMASDPLCLTYSYLSHVDLVKDLNSGLIGALLVCREGSLAKEKTQTLHKFILLFAVFDEGKSWHSETKNSLMQDRDAASARAWPKMHTVNGYVNRSLPGLIGCHRKSVYWHVIGMGTTPEVHSIFLEGHTFLVRNHRQASLEISPITFLTAQTLLMDLGQFLLFCHISSHQHDGMEAYVKVDSCPEEPQLRMKNNEEAEDYDDDLTDSEMDVVRFDDDNSPSFIQIRSVAKKHPKTWVHYIAAEEEDWDYAPLVLAPDDRSYKSQYLNNGPQRIGRKYKKVRFMAYTDETFKTREAIQHESGILGPLLYGEVGDTLLIIFKNQASRPYNIYPHGITDVRPLYSRRLPKGVKHLKDFPILPGEIFKYKWTVTVEDGPTKSDPRCLTRYYSSFVNMERDLASGLIGPLLICYKESVDQRGNQIMSDKRNVILFSVFDENRSWYLTENIQRFLPNPAGVQLEDPEFQASNIMHSINGYVFDSLQLSVCLHEVAYWYILSIGAQTDFLSVFFSGYTFKHKMVYEDTLTLFPFSGETVFMSMENPGLWILGCHNSDFRNRGMTALLKVSSCDKNTGDYYEDSYEDISAYLLSKNNAIEPRSFSQNGGGGSTGGTGGSSGGGTGSGGGGTGGSGGTDIQLTQSPSFLSASVGDRVTITCRASSSVSYIYWFQQKPGKAPKLLIYATSTLQSGVPSRFSGSGSGTEYTLTISSLQPEDFATYYCHQRNSFPYTFGQGTKLEIKGGGGSGGGGSGGGGSGGGGSEVQLVQSGAEVKKPGASVKVSCKASGYTFTRYTIHWVRQAPGQGLEWMGYINPSSGYTRYNPKFKGRVTMTRDKSTSTAYMELRSLRSDDTAVYYCWTGTRDYWGQGTTVTVSSGGGGSQNPPVLKRHQREITDENQSPRSFQKKTRHYFIAAVERLWDYGMSSSPHVLRNRAQSGSVPQFKKVVFQEFTDGSFTQPLYRGELNEHLGLLGPYIRAEVEDNIMVTFRNQASRPYSFYSSLISYEEDQRQGAEPRKNFVKPNETKTYFWKVQHHMAPTKDEFDCKAWAYFSDVDLEKDVHSGLIGPLLVCHTNTLNPAHGRQVTVQEFALFFTIFDETKSWYFTENMERNCRAPCNIQMEDPTFKENYRFHAINGYIMDTLPGLVMAQDQRIRWYLLSMGSNENIHSIHFSGHVFTVRKKEEYKMALYNLYPGVFETVEMLPSKAGIWRVECLIGEHLHAGMSTLFLVYSNKCQTPLGMASGHIRDFQITASGQYGQWAPKLARLHYSGSINAWSTKEPFSWIKVDLLAPMIIHGIKTQGARQKFSSLYISQFIIMYSLDGKKWQTYRGNSTGTLMVFFGNVDSSGIKHNIFNPPIIARYIRLHPTHYSIRSTLRMELMGCDLNSCSMPLGMESKAISDAQITASSYFTNMFATWSPSKARLHLQGRSNAWRPQVNNPKEWLQVDFQKTMKVTGVTTQGVKSLLTSMYVKEFLISSSQDGHQWTLFFQNGKVKVFQGNQDSFTPVVNSLDPPLLTRYLRIHPQSWVHQIALRMEVLGCEAQDLY
notes: The entry is the mature protein; mostly a 2 chain molecule

target: T1, purified human glycophorin A protein …; assay: ELISA, IgG

EC50 [nM]	Binder
10.4	B1
9.69	B2

target: T8, Cynomolgus monkey glycophorin A on Cynomolgus monkey red blood cells (Cynomolgus monkey); assay: FACS, RBC Cy01
T8 construct: whole, on cells; also called Cyno RBC; Cyno GPA
Protocol: (§1) The binding of the humanized variants to intact red blood cells (RBC) from humans (Hu01 to 03; 3 individuals), Rhesus monkey (Rh01 to 03; 3 individuals) and Cynomolgus monkey (Cy01 to 02; 2 individuals) was measured by fluorescence activated cell sorting (FACS).

fluorescence intensity	Binder
959	B1
1010	B2
960	B3
978	B4
908	B5

target: T8, Cynomolgus monkey glycophorin A on …; assay: FACS, RBC Cy02
Protocol: as §1

fluorescence intensity	Binder
1030	B1
1070	B2
1020	B3
1080	B4
1120	B5

target: T2, human glycophorin A in the red blood …; assay: FACS, RBC Hu01
Protocol: as §1

fluorescence intensity	Binder
646	B1
590	B2
548	B3
514	B4

target: T2, human glycophorin A in the red blood …; assay: FACS, RBC Hu02
Protocol: as §1

fluorescence intensity	Binder
393	B1
375	B2
315	B3
298	B4

target: T2, human glycophorin A in the red blood …; assay: FACS, RBC Hu03
Protocol: as §1

fluorescence intensity	Binder
484	B1
482	B2
387	B3
384	B4

target: T3, Rhesus monkey glycophorin A on Rhesus …; assay: FACS, RBC Rh01
Protocol: as §1

fluorescence intensity	Binder
1480	B1
1520	B2
1530	B3
1480	B4
1470	B5

target: T3, Rhesus monkey glycophorin A on Rhesus …; assay: FACS, RBC Rh02

fluorescence intensity	Binder
1400	B1
1480	B2
1440	B3
1480	B4
1330	B5

target: T3, Rhesus monkey glycophorin A on Rhesus …; assay: FACS, RBC Rh03
Protocol: as §1

fluorescence intensity	Binder
1410	B1
1490	B2
1420	B3
1480	B4
1340	B5

target: T4, native human glycophorin A protein; assay: ELISA, Fab on coated native human GPA

binding in ELISA relative to parental Fab	Binder
5.3 relative to parental Fab	B6
5.1 relative to parental Fab	B7
1.2 relative to parental Fab	B8
5.9 relative to parental Fab	B9
5.6 relative to parental Fab	B10

target: T5, human glycophorin A on human red blood …; assay: ELISA, Fab on coated human RBC membranes

binding in ELISA relative to parental Fab	Binder
6 relative to parental Fab	B6
4.7 relative to parental Fab	B7
0.8 relative to parental Fab	B8
7 relative to parental Fab	B9
9.3 relative to parental Fab	B10

target: T9, Cynomolgus monkey recombinant glycophorin A ectodomain (Cynomolgus monkey); assay: ELISA, Fab on coated recombinant cyno GPA ectodomain
T9 construct: extracellular domain

binding in ELISA relative to parental Fab	Binder
1 relative to parental Fab	B6
1 relative to parental Fab	B7
1.2 relative to parental Fab	B8
1.1 relative to parental Fab	B9
1.1 relative to parental Fab	B10

target: T5, human glycophorin A on human red blood …; assay: SPR (Biacore), Fab over human RBC membranes, 1:1 fit;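 note: human RBC membrane preparations captured on an L1 sensor surface, with antibody passed over them as analyte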
Protocol: Kinetic analysis of the antibody binding to human red blood cell membranes was also performed using surface plasmon resonance (SPR) using a Biacore instrument. In this assay membranes prepared from human red blood cells were attached to a L1 sensor matrix and antibodies were flowed over the RBC membranes.

Kd [nM]	koff [s⁻¹]	kon [M⁻¹ s⁻¹]	Binder
4.1	0.0046	1.1e+06	B6
3.6	0.0042	1.2e+06	B7
37	0.041	1.1e+06	B8
3.9	0.0059	1.5e+06	B9
3.1	0.004	1.3e+06	B10

target: T6, recombinant human glycophorin A …; assay: ELISA, Fab on coated recombinant human GPA ectodomain

binding in ELISA relative to parental Fab	Binder
4.2 relative to parental Fab	B6
4.1 relative to parental Fab	B7
1.1 relative to parental Fab	B8
4.7 relative to parental Fab	B9
4.7 relative to parental Fab	B10

Target: T7, glycophorin A peptide GP5
Assay: Octet, GP5 peptide on the probe, fusion protein in solution, 1:1 fit

Kd [nM]	koff [s⁻¹]	kon [M⁻¹ s⁻¹]	Binder
7.35	0.0048	652000	B11
